*1 amine or outer side, *2 acyl side, *3 side chain or, on linkers, in order; H or OH if unused. Side-chain parts run from the residue outwards. [ ]: non-standard residue; d: D form. The star is where a group is joined. C16 diacid = O=C(O)CCCCCCCCCCCCCCC(=O)*; γGlu = O=C(O)[C@H](CCC(=O)[*:2])N[*:1]; C14 diacid = O=C(O)CCCCCCCCCCCCC(=O)*; Api = NC1(C(=O)O)CCNCC1; AEEA = NCCOCCOCC(=O)O; Aib = CC(C)(N)C(=O)O
Experiments:
[1] = target: T1, CRF1R receptor (UniProt P34998 24-415, limits assumed); experiment: cell-based or functional assay
T1 sequence (looked up): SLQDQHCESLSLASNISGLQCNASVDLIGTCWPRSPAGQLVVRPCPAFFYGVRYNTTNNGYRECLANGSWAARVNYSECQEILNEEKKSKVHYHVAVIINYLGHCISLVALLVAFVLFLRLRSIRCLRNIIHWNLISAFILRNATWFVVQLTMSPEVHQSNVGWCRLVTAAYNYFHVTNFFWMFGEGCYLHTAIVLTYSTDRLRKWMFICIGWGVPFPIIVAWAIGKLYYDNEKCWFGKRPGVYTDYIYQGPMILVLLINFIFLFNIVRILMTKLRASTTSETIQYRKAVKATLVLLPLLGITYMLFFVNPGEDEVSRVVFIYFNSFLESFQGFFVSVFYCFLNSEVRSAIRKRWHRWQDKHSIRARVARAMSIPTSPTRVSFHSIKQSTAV

[2] = target: human corticotropin-releasing factor 2a (CRF2a receptor) (human), Q13324; experiment: cell-based or functional assay
human corticotropin-releasing factor 2a (CRF2a receptor) (human), Q13324, sequence (Q13324 20-411): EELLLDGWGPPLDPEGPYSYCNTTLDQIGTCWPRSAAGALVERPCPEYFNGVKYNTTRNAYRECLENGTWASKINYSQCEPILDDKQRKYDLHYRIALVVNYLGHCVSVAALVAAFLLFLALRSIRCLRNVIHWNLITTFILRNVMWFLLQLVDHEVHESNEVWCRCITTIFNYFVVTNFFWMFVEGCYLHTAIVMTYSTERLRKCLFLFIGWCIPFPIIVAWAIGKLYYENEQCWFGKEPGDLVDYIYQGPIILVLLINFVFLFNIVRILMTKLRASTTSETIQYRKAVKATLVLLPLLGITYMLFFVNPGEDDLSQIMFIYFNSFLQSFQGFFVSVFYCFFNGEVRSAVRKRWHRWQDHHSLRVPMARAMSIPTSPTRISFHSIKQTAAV

B1: SEQ ID NO 166 (peptide)
peptide: Ac-IVLSLD[dV]PIKLK([γGlu-C16 diacid])KILLEQEKQAKQREQAETN[Aib]QILAQV-NH2
SMILES: CC[C@H](C)[C@H](NC(C)=O)C(=O)N[C@H](C(=O)N[C@@H](CC(C)C)C(=O)N[C@@H](CO)C(=O)N[C@@H](CC(C)C)C(=O)N[C@@H](CC(=O)O)C(=O)N[C@@H](C(=O)N1CCC[C@H]1C(=O)N[C@H](C(=O)N[C@@H](CCCCN)C(=O)N[C@@H](CC(C)C)C(=O)N[C@@H](CCCCNC(=O)CC[C@H](NC(=O)CCCCCCCCCCCCCCC(=O)O)C(=O)O)C(=O)N[C@@H](CCCCN)C(=O)N[C@H](C(=O)N[C@@H](CC(C)C)C(=O)N[C@@H](CC(C)C)C(=O)N[C@@H](CCC(=O)O)C(=O)N[C@@H](CCC(N)=O)C(=O)N[C@@H](CCC(=O)O)C(=O)N[C@@H](CCCCN)C(=O)N[C@@H](CCC(N)=O)C(=O)N[C@@H](C)C(=O)N[C@@H](CCCCN)C(=O)N[C@@H](CCC(N)=O)C(=O)N[C@@H](CCCNC(=N)N)C(=O)N[C@@H](CCC(=O)O)C(=O)N[C@@H](CCC(N)=O)C(=O)N[C@@H](C)C(=O)N[C@@H](CCC(=O)O)C(=O)N[C@H](C(=O)N[C@@H](CC(N)=O)C(=O)NC(C)(C)C(=O)N[C@@H](CCC(N)=O)C(=O)N[C@H](C(=O)N[C@@H](CC(C)C)C(=O)N[C@@H](C)C(=O)N[C@@H](CCC(N)=O)C(=O)N[C@H](C(N)=O)C(C)C)[C@@H](C)CC)[C@@H](C)O)[C@@H](C)CC)[C@@H](C)CC)C(C)C)C(C)C
B1 was tested, and the “Emax (% I)” value [1] was 5% and the EC50 [nM] (cAMP) [2] was 0.77 nM.

B2: SEQ ID NO 167 (peptide)
peptide: Ac-IVLSLD[dV]PIKLK([γGlu-C16 diacid])KILLEQEKQKKQAEQAETN[Aib]QILAQV-NH2
SMILES: CC[C@H](C)[C@H](NC(C)=O)C(=O)N[C@H](C(=O)N[C@@H](CC(C)C)C(=O)N[C@@H](CO)C(=O)N[C@@H](CC(C)C)C(=O)N[C@@H](CC(=O)O)C(=O)N[C@@H](C(=O)N1CCC[C@H]1C(=O)N[C@H](C(=O)N[C@@H](CCCCN)C(=O)N[C@@H](CC(C)C)C(=O)N[C@@H](CCCCNC(=O)CC[C@H](NC(=O)CCCCCCCCCCCCCCC(=O)O)C(=O)O)C(=O)N[C@@H](CCCCN)C(=O)N[C@H](C(=O)N[C@@H](CC(C)C)C(=O)N[C@@H](CC(C)C)C(=O)N[C@@H](CCC(=O)O)C(=O)N[C@@H](CCC(N)=O)C(=O)N[C@@H](CCC(=O)O)C(=O)N[C@@H](CCCCN)C(=O)N[C@@H](CCC(N)=O)C(=O)N[C@@H](CCCCN)C(=O)N[C@@H](CCCCN)C(=O)N[C@@H](CCC(N)=O)C(=O)N[C@@H](C)C(=O)N[C@@H](CCC(=O)O)C(=O)N[C@@H](CCC(N)=O)C(=O)N[C@@H](C)C(=O)N[C@@H](CCC(=O)O)C(=O)N[C@H](C(=O)N[C@@H](CC(N)=O)C(=O)NC(C)(C)C(=O)N[C@@H](CCC(N)=O)C(=O)N[C@H](C(=O)N[C@@H](CC(C)C)C(=O)N[C@@H](C)C(=O)N[C@@H](CCC(N)=O)C(=O)N[C@H](C(N)=O)C(C)C)[C@@H](C)CC)[C@@H](C)O)[C@@H](C)CC)[C@@H](C)CC)C(C)C)C(C)C
For B2, the “Emax (% I)” value [1] was 7% and the EC50 [nM] (cAMP) [2] was 1.15 nM.

B3: SEQ ID NO 168 (peptide)
peptide: Ac-IVLSLD[dV]PIKLK([γGlu-C16 diacid])KILLEQEKQKEQREQAETN[Aib]QILAQV-NH2
SMILES: CC[C@H](C)[C@H](NC(C)=O)C(=O)N[C@H](C(=O)N[C@@H](CC(C)C)C(=O)N[C@@H](CO)C(=O)N[C@@H](CC(C)C)C(=O)N[C@@H](CC(=O)O)C(=O)N[C@@H](C(=O)N1CCC[C@H]1C(=O)N[C@H](C(=O)N[C@@H](CCCCN)C(=O)N[C@@H](CC(C)C)C(=O)N[C@@H](CCCCNC(=O)CC[C@H](NC(=O)CCCCCCCCCCCCCCC(=O)O)C(=O)O)C(=O)N[C@@H](CCCCN)C(=O)N[C@H](C(=O)N[C@@H](CC(C)C)C(=O)N[C@@H](CC(C)C)C(=O)N[C@@H](CCC(=O)O)C(=O)N[C@@H](CCC(N)=O)C(=O)N[C@@H](CCC(=O)O)C(=O)N[C@@H](CCCCN)C(=O)N[C@@H](CCC(N)=O)C(=O)N[C@@H](CCCCN)C(=O)N[C@@H](CCC(=O)O)C(=O)N[C@@H](CCC(N)=O)C(=O)N[C@@H](CCCNC(=N)N)C(=O)N[C@@H](CCC(=O)O)C(=O)N[C@@H](CCC(N)=O)C(=O)N[C@@H](C)C(=O)N[C@@H](CCC(=O)O)C(=O)N[C@H](C(=O)N[C@@H](CC(N)=O)C(=O)NC(C)(C)C(=O)N[C@@H](CCC(N)=O)C(=O)N[C@H](C(=O)N[C@@H](CC(C)C)C(=O)N[C@@H](C)C(=O)N[C@@H](CCC(N)=O)C(=O)N[C@H](C(N)=O)C(C)C)[C@@H](C)CC)[C@@H](C)O)[C@@H](C)CC)[C@@H](C)CC)C(C)C)C(C)C
In the case of B3, the “Emax (% I)” value [1] is reported as 3% and the EC50 [nM] (cAMP) [2] is reported as 0.8 nM.

B4: SEQ ID NO 169 (peptide)
peptide: Ac-IVLSLD[dV]PIKLK([γGlu-C14 diacid])KILLEQEKQKAQREQAETN[Api]QILAQV-NH2
SMILES: CC[C@H](C)[C@H](NC(C)=O)C(=O)N[C@H](C(=O)N[C@@H](CC(C)C)C(=O)N[C@@H](CO)C(=O)N[C@@H](CC(C)C)C(=O)N[C@@H](CC(=O)O)C(=O)N[C@@H](C(=O)N1CCC[C@H]1C(=O)N[C@H](C(=O)N[C@@H](CCCCN)C(=O)N[C@@H](CC(C)C)C(=O)N[C@@H](CCCCNC(=O)CC[C@H](NC(=O)CCCCCCCCCCCCC(=O)O)C(=O)O)C(=O)N[C@@H](CCCCN)C(=O)N[C@H](C(=O)N[C@@H](CC(C)C)C(=O)N[C@@H](CC(C)C)C(=O)N[C@@H](CCC(=O)O)C(=O)N[C@@H](CCC(N)=O)C(=O)N[C@@H](CCC(=O)O)C(=O)N[C@@H](CCCCN)C(=O)N[C@@H](CCC(N)=O)C(=O)N[C@@H](CCCCN)C(=O)N[C@@H](C)C(=O)N[C@@H](CCC(N)=O)C(=O)N[C@@H](CCCNC(=N)N)C(=O)N[C@@H](CCC(=O)O)C(=O)N[C@@H](CCC(N)=O)C(=O)N[C@@H](C)C(=O)N[C@@H](CCC(=O)O)C(=O)N[C@H](C(=O)N[C@@H](CC(N)=O)C(=O)NC1(C(=O)N[C@@H](CCC(N)=O)C(=O)N[C@H](C(=O)N[C@@H](CC(C)C)C(=O)N[C@@H](C)C(=O)N[C@@H](CCC(N)=O)C(=O)N[C@H](C(N)=O)C(C)C)[C@@H](C)CC)CCNCC1)[C@@H](C)O)[C@@H](C)CC)[C@@H](C)CC)C(C)C)C(C)C
B4 was tested, and the “Emax (% I)” value [1] was 13% and the EC50 [nM] (cAMP) [2] was 1.34 nM.

B5: SEQ ID NO 170 (peptide)
peptide: Ac-IVLSLD[dV]PIKLK([γGlu-C14 diacid])KILLEQEKQK[Aib]QREQAETN[Api]QILAQV-NH2
SMILES: CC[C@H](C)[C@H](NC(C)=O)C(=O)N[C@H](C(=O)N[C@@H](CC(C)C)C(=O)N[C@@H](CO)C(=O)N[C@@H](CC(C)C)C(=O)N[C@@H](CC(=O)O)C(=O)N[C@@H](C(=O)N1CCC[C@H]1C(=O)N[C@H](C(=O)N[C@@H](CCCCN)C(=O)N[C@@H](CC(C)C)C(=O)N[C@@H](CCCCNC(=O)CC[C@H](NC(=O)CCCCCCCCCCCCC(=O)O)C(=O)O)C(=O)N[C@@H](CCCCN)C(=O)N[C@H](C(=O)N[C@@H](CC(C)C)C(=O)N[C@@H](CC(C)C)C(=O)N[C@@H](CCC(=O)O)C(=O)N[C@@H](CCC(N)=O)C(=O)N[C@@H](CCC(=O)O)C(=O)N[C@@H](CCCCN)C(=O)N[C@@H](CCC(N)=O)C(=O)N[C@@H](CCCCN)C(=O)NC(C)(C)C(=O)N[C@@H](CCC(N)=O)C(=O)N[C@@H](CCCNC(=N)N)C(=O)N[C@@H](CCC(=O)O)C(=O)N[C@@H](CCC(N)=O)C(=O)N[C@@H](C)C(=O)N[C@@H](CCC(=O)O)C(=O)N[C@H](C(=O)N[C@@H](CC(N)=O)C(=O)NC1(C(=O)N[C@@H](CCC(N)=O)C(=O)N[C@H](C(=O)N[C@@H](CC(C)C)C(=O)N[C@@H](C)C(=O)N[C@@H](CCC(N)=O)C(=O)N[C@H](C(N)=O)C(C)C)[C@@H](C)CC)CCNCC1)[C@@H](C)O)[C@@H](C)CC)[C@@H](C)CC)C(C)C)C(C)C
In the case of B5, the “Emax (% I)” value [1] is reported as 5% and the EC50 [nM] (cAMP) [2] is reported as 1.28 nM.

B6: SEQ ID NO 171 (peptide)
peptide: Ac-IVLSLD[dV]PIKLK([AEEA-AEEA-γGlu-C14 diacid])KILLEQEKQKKQREQAETN[Aib]QILAQV-NH2
SMILES: CC[C@H](C)[C@H](NC(C)=O)C(=O)N[C@H](C(=O)N[C@@H](CC(C)C)C(=O)N[C@@H](CO)C(=O)N[C@@H](CC(C)C)C(=O)N[C@@H](CC(=O)O)C(=O)N[C@@H](C(=O)N1CCC[C@H]1C(=O)N[C@H](C(=O)N[C@@H](CCCCN)C(=O)N[C@@H](CC(C)C)C(=O)N[C@@H](CCCCNC(=O)COCCOCCNC(=O)COCCOCCNC(=O)CC[C@H](NC(=O)CCCCCCCCCCCCC(=O)O)C(=O)O)C(=O)N[C@@H](CCCCN)C(=O)N[C@H](C(=O)N[C@@H](CC(C)C)C(=O)N[C@@H](CC(C)C)C(=O)N[C@@H](CCC(=O)O)C(=O)N[C@@H](CCC(N)=O)C(=O)N[C@@H](CCC(=O)O)C(=O)N[C@@H](CCCCN)C(=O)N[C@@H](CCC(N)=O)C(=O)N[C@@H](CCCCN)C(=O)N[C@@H](CCCCN)C(=O)N[C@@H](CCC(N)=O)C(=O)N[C@@H](CCCNC(=N)N)C(=O)N[C@@H](CCC(=O)O)C(=O)N[C@@H](CCC(N)=O)C(=O)N[C@@H](C)C(=O)N[C@@H](CCC(=O)O)C(=O)N[C@H](C(=O)N[C@@H](CC(N)=O)C(=O)NC(C)(C)C(=O)N[C@@H](CCC(N)=O)C(=O)N[C@H](C(=O)N[C@@H](CC(C)C)C(=O)N[C@@H](C)C(=O)N[C@@H](CCC(N)=O)C(=O)N[C@H](C(N)=O)C(C)C)[C@@H](C)CC)[C@@H](C)O)[C@@H](C)CC)[C@@H](C)CC)C(C)C)C(C)C
For B6, the “Emax (% I)” value [1] was 0% and the EC50 [nM] (cAMP) [2] was 5.79 nM.
